Source: PMC3814365 (Nucleic Acids Research, 2013)

Biological target: Untagged Rps28a (S. cerevisiae, UniProt Q3E7X9 1-67)
Assay: SEC-MALS

Chain of Untagged Rps28a (Q3E7X9 whole entry): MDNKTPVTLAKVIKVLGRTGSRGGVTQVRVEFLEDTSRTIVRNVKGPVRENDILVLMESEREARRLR

B1: Edc3(201–231) lacking the His-GST tag (peptide, UniProt P39998 201-231, looked up)
chain: DDIDDPKYLPITQSLNITHLIHSATNSPSIN
In the case of B1, the “stoichiometry N” value is reported as 1.
